The experiment deals with soluble trimeric SARS-CoV-2 spike protein (residues 1-1208) (SARS-CoV-2), P0DTC2. The experiment in a line: SPR. The following applies: remark: other sources report otherwise.

Bounds are passed on as bounds.

Our source for the Kd values is publication PMC7698748.

In general, Kd refers to a measure of binding affinity in units of concentration. A lower Kd goes with higher affinity.

B1: soluble recombinant human DPP4 (residues 29-766), His6-tagged, P27487 29-766 (enzyme)
chain: NKGTDDATADSRKTYTLTDYLKNTYRLKLYSLRWISDHEYLYKQENNILVFNAEYGNSSVFLENSTFDEFGHSINDYSISPDGQFILLEYNYVKQWRHSYTASYDIYDLNKRQLITEERIPNNTQWVTWSPVGHKLAYVWNNDIYVKIEPNLPSYRITWTGKEDIIYNGITDWVYEEEVFSAYSALWWSPNGTFLAYAQFNDTEVPLIEYSFYSDESLQYPKTVRVPYPKAGAVNPTVKFFVVNTDSLSSVTNATSIQITAPASMLIGDHYLCDVTWATQERISLQWLRRIQNYSVMDICDYDESSGRWNCLVARQHIEMSTTGWVGRFRPSEPHFTLDGNSFYKIISNEEGYRHICYFQIDKKDCTFITKGTWEVIGIEALTSDYLYYISNEYKGMPGGRNLYKIQLSDYTKVTCLSCELNPERCQYYSVSFSKEAKYYQLRCSGPGLPLYTLHSSVNDKGLRVLEDNSALDKMLQNVQMPSKKLDFIILNETKFWYQMILPPHFDKSKKYPLLLDVYAGPCSQKADTVFRLNWATYLASTENIIVASFDGRGSGYQGDKIMHAINRRLGTFEVEDQIEAARQFSKMGFVDNKRIAIWGWSYGGYVTSMVLGSGSGVFKCGIAVAPVSRWEYYDSVYTERYMGLPTPEDNLDHYRNSTVMSRAENFKQVEYLLIHGTADDNVHFQQSAQISKALVDVGVDFQAMWYTDEDHGIASSTAHQHIYTHMSHFIKQCFSLP
As for B1, the dissociation constant (Kd) is > 10 µM.
